Assay results published in IntAct's records for PubMed 20181956.

B1: Trinucleotide repeat-containing gene 6C protein (Homo sapiens), Q9HCJ0 (parent)
chain: MEEKKKKKQEEKKKKEGAQKKAADQKTKVPEPTKTCSSQPQPAGTSTSTSTSTISSSNNGKRASASGQQPAASRYLPREVPPRFRQQEQKQLLKRGQPLPTGTLTSVSPTQGAGPAGVSPPPLPGAGTQHHPSKLQPDLSHSGLADHYENSHWGQQPTYRSEANCSWDKVIIDRTDKEAWPSITGTETESASECTTDTDSASNCGSENSSMATGSAQGNFTGHTKKTNGNNGTNGALVQSPSNQSALGAGGANSNGSAARVWGVATGSSSGLAHCSVSGGDGKMDTMIGDGRSQNCWGASNSNAGINLNLNPNANPAAWPVLGHEGTVATGNPSSICSPVSAIGQNMGNQNGNPTGTLGAWGNLLPQESTEPQTSTSQNVSFSAQPQNLNTDGPNNTNPMNSSPNPINAMQTNGLPNWGMAVGMGAIIPPHLQGLPGANGSSVSQVSGGSAEGISNSVWGLSPGNPATGNSNSGFSQGNGDTVNSALSAKQNGSSSAVQKEGSGGNAWDSGPPAGPGILAWGRGSGNNGVGNIHSGAWGHPSRSTSNGVNGEWGKPPNQHSNSDINGKGSTGWESPSVTSQNPTVQPGGEHMNSWAKAASSGTTASEGSSDGSGNHNEGSTGREGTGEGRRRDKGIIDQGHIQLPRNDLDPRVLSNTGWGQTPVKQNTAWEFEESPRSERKNDNGTEAWGCAATQASNSGGKNDGSIMNSTNTSSVSGWVNAPPAAVPANTGWGDSNNKAPSGPGVWGDSISSTAVSTAAAAKSGHAWSGAANQEDKSPTWGEPPKPKSQHWGDGQRSNPAWSAGGGDWADSSSVLGHLGDGKKNGSGWDADSNRSGSGWNDTTRSGNSGWGNSTNTKANPGTNWGETLKPGPQQNWASKPQDNNVSNWGGAASVKQTGTGWIGGPVPVKQKDSSEATGWEEPSPPSIRRKMEIDDGTSAWGDPSNYNNKTVNMWDRNNPVIQSSTTTNTTTTTTTTTSNTTHRVETPPPHQAGTQLNRSPLLGPVSSGWGEMPNVHSKTENSWGEPSSPSTLVDNGTAAWGKPPSSGSGWGDHPAEPPVAFGRAGAPVAASALCKPASKSMQEGWGSGGDEMNLSTSQWEDEEGDVWNNAASQESTSSCSSWGNAPKKGLQKGMKTSGKQDEAWIMSRLIKQLTDMGFPREPAEEALKSNNMNLDQAMSALLEKKVDVDKRGLGVTDHNGMAAKPLGCRPPISKESSVDRPTFLDKDGGLVEEPTPSPFLPSPSLKLPLSHSALPSQALGGIASGLGMQNLNSSRQIPSGNLGMFGNSGAAQARTMQQPPQPPVQPLNSSQPSLRAQVPQFLSPQVQAQLLQFAAKNIGLNPALLTSPINPQHMTMLNQLYQLQLAYQRLQIQQQMLQAQRNVSGSMRQQEQQVARTITNLQQQIQQHQRQLAQALLVKQPPPPPPPPHLSLHPSAGKSAMDSFPSHPQTPGLPDLQTKEQQSSPNTFAPYPLAGLNPNMNVNSMDMTGGLSVKDPSQSQSRLPQWTHPNSMDNLPSAASPLEQNPSKHGAIPGGLSIGPPGKSSIDDSYGRYDLIQNSESPASPPVAVPHSWSRAKSDSDKISNGSSINWPPEFHPGVPWKGLQNIDPENDPDVTPGSVPTGPTINTTIQDVNRYLLKSGGSSPPSSQNATLPSSSAWPLSASGYSSSFSSIASAPSVAGKLSDIKSTWSSGPTSHTQASLSHELWKVPRNSTAPTRPPPGLTNPKPSSTWGASPLGWTSSYSSGSAWSTDTSGRTSSWLVLRNLTPQIDGSTLRTLCLQHGPLITFHLNLTQGNAVVRYSSKEEAAKAQKSLHMCVLGNTTILAEFAGEEEVNRFLAQGQALPPTSSWQSSSASSQPRLSAAGSSHGLVRSDAGHWNAPCLGGKGSSELLWGGVPQYSSSLWGPPSADDSRVIGSPTPLTTLLPGDLLSGESL

Variants of: B1
Details: with pabp1_human PABPC1, P11940
Chain of pabp1_human PABPC1, P11940 (P11940 whole entry): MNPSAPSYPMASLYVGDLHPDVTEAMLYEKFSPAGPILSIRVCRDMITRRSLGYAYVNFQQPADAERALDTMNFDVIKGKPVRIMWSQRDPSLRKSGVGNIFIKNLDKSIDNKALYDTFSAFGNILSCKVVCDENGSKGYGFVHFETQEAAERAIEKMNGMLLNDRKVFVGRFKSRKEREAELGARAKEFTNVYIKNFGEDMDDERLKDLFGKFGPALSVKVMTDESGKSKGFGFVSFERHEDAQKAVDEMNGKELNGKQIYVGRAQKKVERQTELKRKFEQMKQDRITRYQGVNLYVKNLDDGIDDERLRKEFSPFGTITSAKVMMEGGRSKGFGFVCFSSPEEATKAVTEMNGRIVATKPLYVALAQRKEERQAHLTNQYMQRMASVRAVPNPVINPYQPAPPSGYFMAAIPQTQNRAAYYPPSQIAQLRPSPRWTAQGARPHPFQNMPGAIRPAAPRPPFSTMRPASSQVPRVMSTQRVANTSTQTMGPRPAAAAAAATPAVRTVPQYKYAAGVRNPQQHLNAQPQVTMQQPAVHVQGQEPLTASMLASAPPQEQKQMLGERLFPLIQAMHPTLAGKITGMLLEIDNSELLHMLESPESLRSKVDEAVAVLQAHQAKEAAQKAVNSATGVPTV

Row | effect of a mutation on the interaction | Variant
1 | disrupting interaction | F1596A
2 | decreasing interaction | P1601A
3 | decreasing interaction | W1592A
4 | decreasing interaction | P1593A

Variants of: B1
Details: with pabp1_human PABPC1, P11940
Remark: another data set of the same source

Row | effect of a mutation on the interaction | Variant
5 | decreasing interaction | W1602A
6 | decreasing interaction | G1599A
